From patent publication US20050182242A1, “Global analysis of protein activities using proteome chips” (priority 2001, published 2005)

B1: Pyc1p: pyruvate carboxylase 1 homolog with conserved biotin-attachment region (protein, UniProt P11154 1-1178, looked up)
Pyruvate carboxylase 1: MSQRKFAGLRDNFNLLGEKNKILVANRGEIPIRIFRTAHELSMQTVAIYSHEDRLSTHKQKADEAYVIGEVGQYTPVGAYLAIDEIISIAQKHQVDFIHPGYGFLSENSEFADKVVKAGITWIGPPAEVIDSVGDKVSARNLAAKANVPTVPGTPGPIETVEEALDFVNEYGYPVIIKAAFGGGGRGMRVVREGDDVADAFQRATSEARTAFGNGTCFVERFLDKPKHIEVQLLADNHGNVVHLFERDCSVQRRHQKVVEVAPAKTLPREVRDAILTDAVKLAKECGYRNAGTAEFLVDNQNRHYFIEINPRIQVEHTITEEITGIDIVAAQIQIAAGASLPQLGLFQDKITTRGFAIQCRITTEDPAKNFQPDTGRIEVYRSAGGNGVRLDGGNAYAGTIISPHYDSMLVKCSCSGSTYEIVRRKMIRALIEFRIRGVKTNIPFLLTLLTNPVFIEGTYWTTFIDDTPQLFQMVSSQNRAQKLLHYLADVAVNGSSIKGQIGLPKLKSNPSVPHLHDAQGNVINVTKSAPPSGWRQVLLEKGPAEFARQVRQFNGTLLMDTTWRDAHQSLLATRVRTHDLATIAPTTAHALAGRFALECWGGATFDVAMRFLHEDPWERLRKLRSLVPNIPFQMLLRGANGVAYSSLPDNAIDHFVKQAKDNGVDIFRVFDALNDLEQLKVGVDAVKKAGGVVEATVCFSGDMLQPGKKYNLDYYLEIAEKIVQMGTHILGIKDMAGTMKPAAAKLLIGSLRAKYPDLPIHVHTHDSAGTAVASMTACALAGADVVDVAINSMSGLTSQPSINALLASLEGNIDTGINVEHVRELDAYWAEMRLLYSCFEADLKGPDPEVYQHEIPGGQLTNLLFQAQQLGLGEQWAETKRAYREANYLLGDIVKVTPTSKVVGDLAQFMVSNKLTSDDVRRLANSLDFPDSVMDFFEGLIGQPYGGFPEPFRSDVLRNKRRKLTCRPGLELEPFDLEKIREDLQNRFGDVDECDVASYNMYPRVYEDFQKMRETYGDLSVLPTRSFLSPLETDEEIEVVIEQGKTLIIKLQAVGDLNKKTGEREVYFDLNGEMRKIRVADRSQKVETVTKSKADMHDPLHIGAPMAGVIVEVKVHKGSLIKKGQPVAVLSAMKMEMIISSPSDGQVKEVFVSDGENVDSSDLLVLLEDQVPVETKA
B2: SPS1: yeast GST-HisX6 fusion protein on proteome chip (protein, UniProt P08458 1-490, looked up)
Sporulation-specific protein 1: MESKEISIRSRTPPSKLYSIQSCIGRGNFGDVYKAVDRVTQEIVAIKVVNLEHSDEDIELLAQEIFFLAELKSPLITNYIATMLEDVSMWIVMEYCGGGSCSDLLKRSYVNGLPEEKVSFIIHEVTLGLKYLHEQRKIHRDIKAANILLNEEGMVKLGDFGVSGHIRSTLKRDTFVGTPYWMAPEVVCCEVDGYNEKADIWSLGITTYELLKGLPPLSKYDPMKVMTNLPKRKPPKLQGPFSDAAKDFVAGCLVKTPADRPSAYNLLSFEFVKNITITNLKSDVDLIKQKKVQERYTKVPKYPLQNRLYKNSNTVRGKEFWNFESTRLSTTQISKEELSPITQDSPTSSLNMESPYLLHGQTVTPITNPSSSSFRKCTQPVFELDSGMDIDSGCPNAQAETEIVPLSNHNKKHKKNDIQALKIEKFDYLKNIVSHILNRMYDRARDDETRKYVNEMLKQFIKTEANVPGFNEVFIEEISLRIEAIKKGFV
modifications: GST-His6 fusion tag
notes: yeast GST-HisX6 fusion protein on proteome chip

How the values were obtained:
Cy3-labeled streptavidin = molecular target: T1, Cy3-labeled streptavidin (Streptomyces avidinii, UniProt P22629); test: Yeast proteome chip probed with Cy3-labeled streptavidin alone; format: binding
T1 construct: purchased Jackson IR, USA
Source text: To test for protein-protein interactions, the yeast proteome was probed with calmodulin (11). Calmodulin is a highly conserved calcium-binding protein involved in many calcium-regulated cellular processes and has many known physical partners (Hook et al., 2001, Annu. Rev. Pharmacol. Toxicol. 41:471). The calmodulin probe was biotinylated, and bound probe was detected using Cy3-labeled streptavidin. As a control, the yeast proteome was probed with Cy3-labeled streptavidin alone.
In addition to the calmodulin-binding targets, one protein, Pyc1p, which bound Cy3 -labeled streptavidin, was also identified. Pyc1p encodes a pyruvate carboxylase 1 homolog that contains a highly conserved biotin-attachment region (Menendez et al., 1998, Yeast 14:647). Thus, as predicted by its sequence, Pyc1p is biotinylated in vivo; and was identified in all experiments using streptavidin detection methods. Thus, proteome microarrays can be used to identify posttranslational modifications of proteins.

six different liposomes = test: Reverse membrane assay: proteins spotted on nitrocellulose probed with six liposomes; format: binding; conditions: HRP-conjugated streptavidin
Protocol: B. A reverse assay was carried out to test for protein-lipid interactions. The proteins were prepared and spotted onto nitrocellulose filters in a dilution series and probed with the six different liposomes. As a control, the six liposomes were also added to the BSA-blocked membrane. After extensive washing, the bound liposomes were detected using an HRP-conjugated streptavidin and an ECL kit.
C. Linear correlation between the binding signals and the amounts of Rim15p in a membrane assay. When liposome-binding signals of Rim15p from the membrane assay (FIG. 4B) were plotted against the concentration gradient of the spotted Rim15p, the binding signals of PI(4)P, PI(3,4)P2, PI(3)P, and PI(4,5)P2 correlated linearly with the amounts of Rim15p.
Therefore, six proteins, i.e., Rim15p, Eno2p, Hxk1p, Sps1p, Yg1059wp, and Gcn2p, were further tested for phosphoinositol binding using two types of standard assays (Williamson, 2000, Nat. Struct Biol. 7(10):834-7). For Rim15p, Eno2p, and Hxk1p, PI(4,5)P2 liposomes were first adhered to a nitrocellulose membrane, which was then blocked by BSA; different amounts of the GST fusion proteins and a GST control were used to probe the membrane, and bound proteins were detected using anti-GST antibodies. […] The bound liposomes were detected using a horseradish peroxidase (“HRP”)-conjugated streptavidin.

[1] = system: phosphatidylcholine (PC) liposomes; test: Yeast proteome chip probed with PC liposomes; conditions: liposome binding signal on yeast proteome chip, Cy3-streptavidin detection
In short: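 Sonicated liposomes in TBS, of phosphatidylcholine with 1% (w/w) biotin-DHPE plus 5% (w/w) of the named phosphoinositide (PC-only liposomes lacking it), were incubated on blocked chips of GST-RGS-His6-tagged yeast ORF proteins for 1 h at RT. Bound liposomes were detected with Cy3- or Cy5-streptavidin after PBS washes.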

PI(4,5)P2 liposomes = test: Yeast proteome chip probed with PI(4,5)P2 liposomes; conditions: liposome binding signal on yeast proteome chip, Cy3-streptavidin detection
PI(3)P liposomes = test: Yeast proteome chip probed with PI(3)P liposomes; conditions: liposome binding signal on yeast proteome chip, Cy3-streptavidin detection
PI(4)P liposomes = test: Yeast proteome chip probed with PI(4)P liposomes; conditions: liposome binding signal on yeast proteome chip, Cy3-streptavidin detection
PI(3,4,5)P3 liposomes = test: Yeast proteome chip probed with PI(3,4,5)P3 liposomes; conditions: liposome binding signal on yeast proteome chip, Cy3-streptavidin detection
PI(3,4)P2 liposomes = test: Yeast proteome chip probed with PI(3,4)P2 liposomes; conditions: liposome binding signal on yeast proteome chip, Cy3-streptavidin detection

T1 sequence (P22629 25-183): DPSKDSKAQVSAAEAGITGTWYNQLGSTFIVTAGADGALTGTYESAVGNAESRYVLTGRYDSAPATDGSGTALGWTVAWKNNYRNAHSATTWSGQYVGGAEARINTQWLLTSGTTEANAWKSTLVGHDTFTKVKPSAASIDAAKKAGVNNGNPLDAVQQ

Molecule | binding of Cy3-labeled streptavidin (Cy3-labeled streptavidin) | liposome binding in reverse membrane assay (six different liposomes) | PC [1] | PI(4, 5)P2 (PI(4,5)P2 liposomes) | PI(3)P (PI(3)P liposomes) | PI(4)P (PI(4)P liposomes) | PI(3, 4, 5)P3 (PI(3,4,5)P3 liposomes) | PI(3, 4)P2 (PI(3,4)P2 liposomes)
B1 | bound |  |  |  |  |  |  | 
B2 |  | bound all five phosphoinositol-containing liposomes nearly equally | 557.02 | 358.84 | 88.50 | 246.92 | 389.70 | 1147.50
